We go through twelve molecules from patent US20240336686A1.

Residue numbers refer to the chain shown, from its start.

B1: Anti-SIRPα antibody C25 (antibody, V domains shown)
VH: EVQLQQSGAELVKPGASVKLSCTASGFNIKDYYMHWVKQRTEQGLEWIGRIDPEDGETKYAPKFQGKATITADTSSNTAYLQLSSLTSEDTAVYYCDRGLAYWGQGTLVTVSA
VL: QIVLTQSPAIMSASPGEKVTLTCSASSSVSSSYLYWYQQKPGSSPKLWIYSTSNLASGVPARFSGSGSGTSYSLTISSMEAEDAASYFCHQWSSYPYTFGGGTKLEIK
B2: Anti-Claudin18.2/SIRPα bispecific antibody ES028-009 (bispecific antibody, not shown: a dimerising Fc or GST)
light (part 1 of 2): B1 VL
light (part 2 of 2): GGGGSGGGGSGGGGSDIVMTQSPDSLAVSLGERATINCKSSQSLLNAGNQKNYLTWYQQKPGQPPKLLIYWSSTRESGVPDRFSGSGSGTDFTLTISSLQAEDVAVYHCQNNYYYPLTFGGGTKLEIKGGGGSGGGGSGGGGSGGGGSQVQLVQSGAEVKKPGASVKVSCKASGYTFTNWVHWVRQAPGQGLEWMGEINPTNARSNYNEKFKKRVTMTRDTSTSTVYMELSSLRSEDTAVYYCARIYYGNSFAHWGQGTLVTVSS
heavy: B1 VH
B3: Anti-Claudin18.2/SIRPα bispecific antibody ES028-013 (bispecific antibody, not shown: a dimerising Fc or GST)
light: B1 VL
heavy (part 1 of 2): B1 VH
heavy (part 2 of 2): B2 light (part 2 of 2)
B4: Anti-Claudin18.2/SIRPα bispecific antibody ES028-001 (bispecific antibody, not shown: a dimerising Fc or GST)
light (part 1 of 2): DIVMTQSPDSLAVSLGERATINCKSSQSLLNAGNQKNYLTWYQQKPGQPPKLLIYWSSTRESGVPDRFSGSGSGTDFTLTISSLQAEDVAVYHCQNNYYYPLTFGGGTKLEIK
light (part 2 of 2): GGGGSGGGGSGGGGSQIVLTQSPAIMSASPGEKVTLTCSASSSVSSSYLYWYQQKPGSSPKLWIYSTSNLASGVPARFSGSGSGTSYSLTISSMEAEDAASYFCHQWSSYPYTFGGGTKLEIKGGGGSGGGGSGGGGSGGGGSEVQLQQSGAELVKPGASVKLSCTASGFNIKDYYMHWVKQRTEQGLEWIGRIDPEDGETKYAPKFQGKATITADTSSNTAYLQLSSLTSEDTAVYYCDRGLAYWGQGTLVTVSA
heavy: QVQLVQSGAEVKKPGASVKVSCKASGYTFTNWVHWVRQAPGQGLEWMGEINPTNARSNYNEKFKKRVTMTRDTSTSTVYMELSSLRSEDTAVYYCARIYYGNSFAHWGQGTLVTVSS
B5: Anti-Claudin18.2/SIRPα bispecific antibody ES028-005 (bispecific antibody, not shown: a dimerising Fc or GST)
light: B4 light (part 1 of 2)
heavy (part 1 of 2): B4 heavy
heavy (part 2 of 2): B4 light (part 2 of 2)
B6: Anti-Claudin18.2 antibody hu28.H1L2 (antibody, V domains shown)
VH: B4 heavy
VL: B4 light (part 1 of 2)
B7: Humanized anti-SIRPα antibody hu025.021 (antibody, V domains shown)
VH: EVQLVQSGAEVKKPGATVKISCKVSGFNIKDYYMHWVQQAPGKGLEWIGRIDPEDAETKYAPKFQGRVTITADTSTNTAYMELSSLRSEDTAVYYCDRGLAYWGQGTLVTVSS
VL: EIVLTQSPATLSLSPGERATLSCSASSSVSSSYLYWYQQKPGQAPKLWIYSTSNLASGIPARFSGSGSGTDYTLTISSLEPEDFAVYYCHQWSSYPYTFGQGTKLEIK
B8: Humanized anti-SIRPα antibody hu025.059 (antibody, V domains shown)
VH: B7 VH with V24A
VL: B7 VL
B9: Humanized anti-SIRPα antibody hu025.023 (antibody, V domains shown)
VH: B7 VH
VL: B7 VL with Y72F
B10: Humanized anti-SIRPα antibody hu025.060 (antibody, V domains shown)
VH: B7 VH with V24A
VL: B7 VL with Y72F
B11: Anti-PDL1/SIRPα bispecific antibody ES019-024 (bispecific antibody, not shown: a dimerising Fc or GST)
light: B1 VL
heavy (part 1 of 2): B1 VH
heavy (part 2 of 2): EVQVVESGGGLVQSGGSLKLSCAGSGFTESAGFMVWHRQVPGKERELVALIATPSGSTNYADSVKGRFTISRDNGKNTVYLQMNSLKPEDTAVYYCNIRGYWGQGTLVTVSS
B12: Anti-PDL1/SIRPα bispecific antibody ES019-026 (bispecific antibody, not shown: small tags and cut ends; a dimerising Fc or GST)
light (part 1 of 2): B11 heavy (part 2 of 2)
light (part 2 of 2): B1 VL
heavy: B1 VH

The target in the first assay is human SIRPα on CHO-K1 cells (human) (UniProt P78324). Briefly: FACS, CHO-K1 cells overexpressing human SIRPα, anti-human Fc-PE, MFI. (In general: A flow cytometer gives signals particle by particle.)
Turning to B1, the EC50 (read off the curve) (in general, the midpoint of the concentration-response curve) turned out to be 0.5 nM. This counts as sub-nanomolar.
The same measure, in the same setting: in the case of B2 it was 0.5 nM; in that of B3, 0.5 nM.
Molecule B4 registered an EC50 (read off the curve) of 0.8 nM.
In the case of B5, the EC50 (read off the curve) is 0.9 nM.

The target in the next assay is human Claudin18.2 on Raji cells (human) (UniProt P56856). In words: FACS, Raji cells overexpressing human Claudin18.2, anti-human Fc-PE, MFI.
Molecule B4 registered an EC50 (read off the curve) of 2 nM.
For B5, the EC50 (read off the curve) is 1 nM.
The molecule B6 had a 50% effective concentration (EC50 (read off the curve)) of 1 nM.

For a further assay, the target named is Human SIRPα v1 (human) (UniProt P78324). In words: SPR (Biacore), 1:1 binding model. Background: SPR reads the build-up and loss of mass on a sensor chip optically.
Chain of Human SIRPα v1 (human) (P78324 31-370): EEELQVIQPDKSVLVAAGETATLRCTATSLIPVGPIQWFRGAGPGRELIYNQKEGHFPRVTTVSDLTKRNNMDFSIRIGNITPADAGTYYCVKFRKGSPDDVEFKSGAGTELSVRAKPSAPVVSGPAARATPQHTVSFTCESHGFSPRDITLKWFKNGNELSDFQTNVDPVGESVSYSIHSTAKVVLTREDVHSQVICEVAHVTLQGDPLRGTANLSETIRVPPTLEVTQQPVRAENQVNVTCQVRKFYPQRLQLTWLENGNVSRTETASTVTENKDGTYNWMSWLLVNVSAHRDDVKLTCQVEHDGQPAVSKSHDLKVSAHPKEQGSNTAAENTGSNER
For B1, the Kd (as a rule, the concentration at which binding is half-saturated) was 1.53 nM; the dissociation rate constant (koff) – broadly, the rate constant with which the complex falls apart – was determined as 0.000924 s⁻¹; the kon (usually the second-order rate constant of association) was determined as 602000 M⁻¹ s⁻¹.
Taken in the same sequence, the figures for B7 were 3.05 nM, 0.00183 s⁻¹ and 599000 M⁻¹ s⁻¹.
For B8 the same measures were 2.29 nM, 0.00123 s⁻¹ and 536000 M⁻¹ s⁻¹.
For B9 the same measures were 2.67 nM, 0.00172 s⁻¹ and 643000 M⁻¹ s⁻¹.
On to B10, for which the dissociation constant Kd came to 1.99 nM, the koff amounted to 0.00111 s⁻¹ and the kon worked out at 560000 M⁻¹ s⁻¹.

Another assay addresses human SIRPα on CHO-K1 cells (human) (UniProt P78324). In words: FACS, CHO-K1 cells overexpressing human SIRPα, anti-human Fc-PE, MFI. This is another data set of the same source.
B1 showed an EC50 (read off the curve) of 0.3 nM.
As for B11, the concentration for a half-maximal effect (EC50 (read off the curve)) is 0.3 nM.
Consider B12, for which the EC50 (read off the curve) stood at 0.4 nM. This EC50 (read off the curve) and that of the molecule before are within 1.5-fold of each other.

A further assay deals with human SIRPα protein (Octet assay) (human) (UniProt P78324). In words: Octet; antibody on sensor, SIRPα protein in solution. In general terms: In BLI a coated tip is dipped into the sample, and binding shifts an interference pattern.
The molecule B1 gave a Kd of 2.12 nM, a koff of 0.00109 s⁻¹ and a kon of 512000 M⁻¹ s⁻¹.
For the molecule B2, the Kd came out at 2.44 nM, the koff was 0.00133 s⁻¹ and the kon was 544000 M⁻¹ s⁻¹.
Taken in the same sequence, the figures for B4 were 1.51 nM, 0.000271 s⁻¹ and 179000 M⁻¹ s⁻¹.
For B5 the same measures were 1.41 nM, 0.00047 s⁻¹ and 334000 M⁻¹ s⁻¹.
